Test results as given in patent US20190048038A1, “METHOD FOR GENERATING CELL-PENETRATING STAPLED PEPTIDES THAT LACK NONSPECIFIC MEMBRANE-LYTIC PROPERTIES FOR THERAPEUTIC TARGETING” (Dana-Farber Cancer Institute, Inc., priority 2016, published 2019).
Positions of bridges follow the written chain, without caps; N, C: chain ends. Non-standard residues stand in square brackets, D forms with d. Residues, ends and D or L forms follow the SMILES beside them. No end group written: not given here. *: point of attachment. FITC = O=C1OC2(c3ccc(O)cc3Oc3cc(O)ccc32)c2ccc(NC(=S)*)cc21; R8 = C=CCCCCCC[C@@](C)(N)C(=O)O; Cba = N[C@@H](CC1CCC1)C(=O)O; S5 = C=CCCC[C@](C)(N)C(=O)O; βAla = NCCC(=O)O

What was measured:
[1] = system: mouse embryonic fibroblasts (MEFs); assay: ImageXpress microscopy cellular uptake of FITC-peptides (TIFI); type: cell-based; details: MEFs 2×10^4 cells/well, 500 nM FITC-peptide, 4 h, 0% FBS, per cell basis
Text: The cellular penetrance of a peptide of interest can be assessed by any method known in the art. For example, ImageXpress microscopy analysis may be employed as described in Example 1. The total internalized FITC intensity (TIFI) can be used as a way to determine cellular uptake of a hydrocarbon-stapled and/or stitched peptide by a cell (e.g., any cell described herein). Methods of determining TIFI are described in detail in Examples 2 and 3 of the instant specification. Briefly, a custom module (CM) was created to develop a rigorous quantitation platform for measuring cellular uptake of hydrocarbon-stapled and/or stitched peptides derivatized with a FITC fluorophore at the N-terminus. The CM was developed based on (1) defining the parameters of cellular uptake (e.g., excluding extracellular aggregates and auto-fluorescent debris), (2) defining a pixel boundary to avoid quantitation of extracellular, membrane-adherent peptides, (3) excluding out-of-focus fluorescence from the FITC signal outliers. Once the CM parameters are set, images can be acquired at 20× and 40× magnification for per cell basis fluorescence, and four distinct central locations of the cellular field are visualized. Next signal-to-noise ratios are maximized to ensure optimal sensitivity and specificity of internal FITC-peptide signal. […]

[2] = system: BCL-XL-reconstituted p185^+Arf^−/−Mcl-1^del B-ALL cells; assay: LDH release assay (membrane lysis) in B-ALL cells; details: 10 μM peptide, 30 min, serum-free
Protocol: Data are normalized based on the response to treatment with 1% Triton X-100 (100% release) and media alone (0% LDH release). Error bars are mean±s.d. for experiments performed in technical duplicate and repeated twice.
B-ALL and Jurkat T cells were plated in 96-well format (2×10^4 cells per well) in serum-free RPMI. […] The plate was centrifuged at 1500 rpm for 5 min at 4° C., and 80 μL of cell culture media was transferred to a clear plate (Corning), incubated with 80 μL of LDH reagent (Roche) for 15 min while shaking, and absorbance measured at 490 nm on a microplate reader (SpectraMax M5 Microplate Reader, Molecular Devices).
In order to identify compounds whose cytotoxicity correlates with the capacity for cellular uptake and intracellular target engagement, it is important to rule out nonspecific cytotoxicity due to potential plasma membrane lysis.

[3] = molecular target: T1, BCL-XLΔC (Homo sapiens, UniProt Q07817); assay: IC50 (nM); parameters: BCL-XL ΔC was expressed as a glutathione-S-transferase (GST) fusion protein; GST (N, cleaved yes); made in house; host or cells: Escherichia coli BL21 (DE3), pGEX2T vector
Text: Table printed on a drawing sheet, FIG. 4B
Head of the field: IC50 (nM)
First copying reader's note: The table is the legend of a binding plot (mP vs [BCL-XL ΔC], M); plot marker symbols before each sequence are left out, and some mutated residues are printed inside a box.

[4] = molecular target: T1, BCL-XLΔC; assay: fluorescence polarization
Target sequence in this assay (Q07817 1-212, stated change not applied): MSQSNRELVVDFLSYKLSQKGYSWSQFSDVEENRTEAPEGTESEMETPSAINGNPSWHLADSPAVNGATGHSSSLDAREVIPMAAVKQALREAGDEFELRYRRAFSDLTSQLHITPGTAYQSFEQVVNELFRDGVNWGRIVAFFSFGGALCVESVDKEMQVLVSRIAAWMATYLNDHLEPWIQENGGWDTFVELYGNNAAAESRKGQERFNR

[5] = system: SAOS-2 cells; assay: Epifluorescence (IXM) microscopy cellular penetrance of ATSP-7041; type: cell-based
Text: Error bars represent mean±s.d.
Images were acquired by IXM.

[6] = system: cells; details: 20 μM peptide
Text: Data are normalized based on the response to treatment with 1% Triton X-100 (100% release) and media alone (0% LDH release). Error bars are mean±s.d.

[7] = Percent α-helicity by circular dichroism; type: physicochemical; details: 222 nm
Protocol: FIG. 19 is a table showing the sequence composition and biophysical parameters of a BIM BH3 staple scanning library. Hydrophobicity was calculated using techniques generally known in the art^39, with “X” assigned the hydrophobicity value of Leu. Retention time in minutes reflects the peptide elution time from an HPLC C18 column (Agilent, 1200) run for 20 minutes using a 5-95% water: acetonitrile gradient (10 mM ammonium carbonate). Percent α-helicity of stapled peptides (50 μM, 10% acetonitrile in water) was derived from circular dichroism spectra using the mdeg value at 222 nm, as described^34. Net charge was calculated by summing the positive and negative charges of Arg and Asp/Glu, respectively. The isoelectric point (pI) calculation employed the EMBOSS values for pKa.
The alpha-helicity of a peptide of interest can be determined by any method known in the art. In some cases, circular dichroism or nuclear magnetic resonance spectroscopy (NMR) may be employed. Peptides are dissolved in an aqueous solution (e.g., 5 mM potassium phosphate solution at pH 7, or distilled H2O, to concentrations of 25-50 μM). […] The α-helical content of each peptide is calculated by dividing the mean residue ellipticity by the reported value for a model helical decapeptide (Yang et al., Methods Enzymol. 130:208 (1986)). […]

CC[C@H](C)[C@H](NC(=O)CCNC(=S)Nc1ccc2c(c1)C(=O)OC21c2ccc(O)cc2Oc2cc(O)ccc21)C(=O)N[C@@H](Cc1c[nH]c2ccccc12)C(=O)N[C@H](C(=O)N[C@@H](C)C(=O)N[C@@H](CCC(N)=O)C(=O)N[C@@H](CCC(=O)O)C(=O)N[C@@H](CC(C)C)C(=O)N[C@@H](CCCNC(=N)N)C(=O)N[C@@]1(C)CCCC=CCCC[C@@](C)(C(=O)N[C@@H](Cc2ccccc2)C(=O)N[C@@H](CC(N)=O)C(=O)N[C@@H](CCC(=O)O)C(=O)N[C@@H](Cc2ccc(O)cc2)C(=O)N[C@@H](Cc2ccc(O)cc2)C(=O)N[C@@H](C)C(=O)N[C@@H](CCCNC(=N)N)C(=O)N[C@@H](CCCNC(=N)N)C(N)=O)NC(=O)[C@H](CC(=O)O)NC(=O)CNC(=O)[C@H]([C@@H](C)CC)NC1=O)[C@@H](C)CC [A161E, IWIAQELRXIGDXFNEYYARR]
total internalized FITC intensity (TIFI), cellular uptake [1]: retention of high level TIFI

CC[C@H](C)[C@H](NC(=O)CCNC(=S)Nc1ccc2c(c1)C(=O)OC21c2ccc(O)cc2Oc2cc(O)ccc21)C(=O)N[C@@H](Cc1c[nH]c2ccccc12)C(=O)N[C@H](C(=O)N[C@@H](C)C(=O)N[C@@H](CCC(N)=O)C(=O)N[C@@H](CCC(=O)O)C(=O)N[C@@H](CC(C)C)C(=O)N[C@@H](CCCNC(=N)N)C(=O)N[C@@]1(C)CCCC=CCCC[C@@](C)(C(=O)N[C@@H](Cc2ccccc2)C(=O)N[C@@H](CC(N)=O)C(=O)N[C@@H](C)C(=O)N[C@@H](Cc2ccc(O)cc2)C(=O)N[C@@H](Cc2ccc(O)cc2)C(=O)N[C@H](C(=O)N[C@@H](CCCNC(=N)N)C(=O)N[C@@H](CCCNC(=N)N)C(N)=O)[C@@H](C)O)NC(=O)[C@H](CC(=O)O)NC(=O)CNC(=O)[C@H]([C@@H](C)CC)NC1=O)[C@@H](C)CC [A164T, IWIAQELRXIGDXFNAYYTRR]
LDH release, membrane lytic activity [2]: promote lysis

CC[C@H](C)[C@H](NC(=O)CCNC(=S)Nc1ccc2c(c1)C(=O)OC21c2ccc(O)cc2Oc2cc(O)ccc21)C(=O)N[C@@H](Cc1c[nH]c2ccccc12)C(=O)N[C@H](C(=O)N[C@@H](C)C(=O)N[C@@H](CCC(N)=O)C(=O)N[C@@H](CCC(=O)O)C(=O)N[C@@H](CC(C)C)C(=O)N[C@@H](CCCNC(=N)N)C(=O)N[C@@]1(C)CCCC=CCCC[C@@](C)(C(=O)N[C@@H](Cc2ccccc2)C(=O)N[C@@H](CC(N)=O)C(=O)N[C@@H](C)C(=O)N[C@@H](Cc2ccc(O)cc2)C(=O)N[C@@H](Cc2ccc(O)cc2)C(=O)N[C@@H](C)C(=O)N[C@@H](CCCNC(=N)N)C(=O)N[C@@H](CCCNC(=N)N)C(N)=O)NC(=O)[C@H](CC(C)C)NC(=O)CNC(=O)[C@H]([C@@H](C)CC)NC1=O)[C@@H](C)CC [IWIAQELRXIGLXFNAYYARR] ({FITC-βAla}-IWIAQELR[S5]IGL[S5]FNAYYARR-NH2; staple 9-13)
IC50 [3]: > 1000 nM

CC[C@H](C)[C@H](NC(=O)CCNC(=S)Nc1ccc2c(c1)C(=O)OC21c2ccc(O)cc2Oc2cc(O)ccc21)C(=O)N[C@@H](CCCNC(=N)N)C(=O)N[C@H](C(=O)N[C@@H](C)C(=O)N[C@@H](CCC(N)=O)C(=O)N[C@@H](CCC(=O)O)C(=O)N[C@@H](CC(C)C)C(=O)N[C@@H](CCCNC(=N)N)C(=O)N[C@@]1(C)CCCC=CCCC[C@@](C)(C(=O)N[C@@H](Cc2ccccc2)C(=O)N[C@@H](CC(N)=O)C(=O)N[C@@H](C)C(=O)N[C@@H](Cc2ccc(O)cc2)C(=O)N[C@@H](Cc2ccc(O)cc2)C(=O)N[C@@H](C)C(=O)N[C@@H](CCCNC(=N)N)C(=O)N[C@@H](CCCNC(=N)N)C(N)=O)NC(=O)[C@H](CC(=O)O)NC(=O)CNC(=O)[C@H]([C@@H](C)CC)NC1=O)[C@@H](C)CC [W147R, IRIAQELRXIGDXFNAYYARR]
LDH release, membrane lytic activity [2]: promote lysis

BIM SAHBA1
IC50 [4]: 13.8 nM

IWIALELRXIGDXFNAYYARR
IC50 [4]: > 1000 nM

IWIAQELRXIGDXFNAIYARR
IC50 [4]: 59.4 nM

IWIAQELRXIGDXFNAYYIRR
IC50 [4]: 45.7 nM

IWIAQLLRXIGDXFNAYYARR
IC50 [4]: > 1000 nM

LTFZEYWANCbXSAA (LTF[R8]EYWAN[Cba][S5]SAA; staple 4-11) [ATSP-7041, i, i+7 stapled peptide; X S-pentenyl alanine, Z R-octenyl alanine, Cb cyclobutylalanine]
cellular penetrance (TIFI value) [5]: effective cellular penetrance | nonspecific membrane lytic properties (LDH release) [6]: lacks nonspecific membrane lytic properties | α-helicity [7]: 70%
